Data on nine molecules can be found in patent publication US20150203840A1 (ARGEN X N V, published 2015).

The term Kd denotes the concentration at which binding is half-saturated.

To fix the notation:
B1: 197G10 (antibody, V domains shown)
VH: EVQLVESGGGLVQPGGSLRLSCAASGFTFSSSWMYWVRQAPGKGLEFVSVINTRSGITHYVESVKGRFTISTDNAKNTLFLQMNSLKSEDTAVYYCATRIQGLIDYWGQGTQVTVSS
VL: DIQMTQSPSSMSASLGDSVTISCQASENIGTQLFWYQQNAGQPPKLLIYGASRLQTGVPSRFSGSGSGTTFTLTISGVETGDLATYYCLQDYSWPLTFGQGTKVELK
notes: Vkappa-shuffled clone of 170B2 (keeps the 170B2 VH-CH1); also called VK_197G10
B2: 196C2 (antibody, V domains shown)
VH: B1 VH
VL: DIQMTQSPSSLSASLGDRVTITCQASQSISSLLAWYQQKPGQAPKLLIYGASRLQTGVPSRFSGSGSGTSFTLTISGVEAEDLATYYCLQDYSWPLTFGQGTKVELK
notes: Vkappa-shuffled clone of 170B2 (keeps the 170B2 VH-CH1); also called VK_196C2
B3: 196F8 (antibody, V domains shown)
VH: B1 VH
VL: B2 VL with L32M, K45N, G66R
notes: Vkappa-shuffled clone of 170B2 (keeps the 170B2 VH-CH1); also called VK_196F8
B4: 197B7 (antibody, V domains shown)
VH: B1 VH
VL: B2 VL with Q3V, S30R, L32F, L33I, A34D, A51T, Q55E, S65T
notes: Vkappa-shuffled clone of 170B2 (keeps the 170B2 VH-CH1); also called VK_197B7
B5: 197D3 (antibody, V domains shown)
VH: B1 VH
VL: B2 VL with I21V, S30R, L32S, A34N, Q55R, T56I, G66A, D91E, S93A
notes: Vkappa-shuffled clone of 170B2 (keeps the 170B2 VH-CH1); also called VK_197D3
B6: 170B2 (antibody, V domains shown)
VH: B1 VH
VL: DIVMTQSPSSLSVSLGDRVTITCQASQSIGSVNALAWYQQKPGQSLKLLIHGASRLQTGVPSRFSGSGSGTSFTLAISGVEAEDLATYYCLQDYAWPLTFGQGTKVELK
notes: Llama-derived parental clone; also called VH_170B2; VK_170B2
B7: 198G11 (antibody, V domains shown)
VH: B1 VH
VL: DIVMTQSPSSLSASLGDRVTVTCQASQSIRSSLNWYQQKPGQAPKLLIYGASRLRIGVPSRFSGSASGTSFTLTISGVESEDLATYYCLQDYTWPLSFGSGTRLEIK
notes: Vkappa-shuffled clone of 170B2 (keeps the 170B2 VH-CH1); also called VK_198G11
B8: 198C9 (antibody, V domains shown)
VH: B1 VH
VL: DIVMTQSPSSLSASLGDRVTITCQATQSISTFLSWYQQKPGQTPKLLVYGASRLQTGVPSRFSGTGSGTKFTLTISGVEAEDLASYFCLQDYSWPLTFGQGTKVELK
notes: Vkappa-shuffled clone of 170B2 (keeps the 170B2 VH-CH1); also called VK_198C9
B9: 198B7 (antibody, V domains shown)
VH: B1 VH
VL: B2 VL with L32Q
notes: Vkappa-shuffled clone of 170B2 (keeps the 170B2 VH-CH1); also called VK_198B7

Changes are numbered by the printed parent chain.

One test deals with T1, recombinant mouse IL22R1 (mouse IL22R ECD) (mouse, UniProt Q80XZ4 16-230, biotinylated in the ELISA of Table 4).
T1 construct: extracellular domain; also called mIL22R; mIL22R1
T1 sequence (looked up): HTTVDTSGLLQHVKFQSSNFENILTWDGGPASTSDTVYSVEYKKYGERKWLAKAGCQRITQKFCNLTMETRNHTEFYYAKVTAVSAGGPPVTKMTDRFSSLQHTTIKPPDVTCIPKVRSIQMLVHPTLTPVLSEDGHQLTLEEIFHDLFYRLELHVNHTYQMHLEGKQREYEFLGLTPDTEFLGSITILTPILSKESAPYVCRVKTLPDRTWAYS
The test is described as follows: Biacore, mIL22R. On the technique in general: Surface plasmon resonance follows binding to a sensor surface in real time, without labels.
Turning to B1, the equilibrium dissociation constant (Kd) worked out at 450 pM.

In the case of B2, the dissociation constant (Kd) stood at 450 pM.

Regarding B3, the Kd came to 310 pM.

For the molecule B4, the Kd came to 390 pM.

In the case of B5, the Kd amounted to 370 pM.

A further test has as its target T2, human IL22R on BW-hIL22R cells (human, UniProt Q8N6P7 16-574).
T2 sequence (looked up): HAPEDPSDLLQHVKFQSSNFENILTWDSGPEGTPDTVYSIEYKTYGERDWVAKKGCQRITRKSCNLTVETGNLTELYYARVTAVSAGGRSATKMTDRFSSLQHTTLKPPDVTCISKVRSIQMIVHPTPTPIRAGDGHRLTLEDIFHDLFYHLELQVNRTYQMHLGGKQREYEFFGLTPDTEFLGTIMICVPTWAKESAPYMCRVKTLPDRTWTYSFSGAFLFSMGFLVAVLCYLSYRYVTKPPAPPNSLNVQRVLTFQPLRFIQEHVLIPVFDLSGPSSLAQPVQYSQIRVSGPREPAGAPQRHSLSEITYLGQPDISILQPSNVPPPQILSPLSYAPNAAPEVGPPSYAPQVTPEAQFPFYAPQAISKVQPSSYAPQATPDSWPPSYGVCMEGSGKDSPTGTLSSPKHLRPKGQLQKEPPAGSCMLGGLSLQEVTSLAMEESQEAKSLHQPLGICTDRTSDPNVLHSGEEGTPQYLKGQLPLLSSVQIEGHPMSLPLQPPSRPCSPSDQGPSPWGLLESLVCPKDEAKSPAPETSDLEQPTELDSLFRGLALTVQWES
The test is described as follows: cell-based or functional assay.
In the case of B6, the “Potency (pM) BW-hIL22R” value turned out to be 106 pM.

For B1, the “Potency (pM) BW-hIL22R” value is 124 pM.

With B2, the “Potency (pM) BW-hIL22R” value is 67 pM.

With B3, the “Potency (pM) BW-hIL22R” value stood at 87 pM.

Turning to B4, the “Potency (pM) BW-hIL22R” value is 69 pM.

On to B5, for which the “Potency (pM) BW-hIL22R” value was determined as 57 pM.

The target in a further test is T3, mouse IL22R on BaF3-mIL22R cells (mouse, UniProt Q80XZ4 16-581).
T3 sequence (looked up): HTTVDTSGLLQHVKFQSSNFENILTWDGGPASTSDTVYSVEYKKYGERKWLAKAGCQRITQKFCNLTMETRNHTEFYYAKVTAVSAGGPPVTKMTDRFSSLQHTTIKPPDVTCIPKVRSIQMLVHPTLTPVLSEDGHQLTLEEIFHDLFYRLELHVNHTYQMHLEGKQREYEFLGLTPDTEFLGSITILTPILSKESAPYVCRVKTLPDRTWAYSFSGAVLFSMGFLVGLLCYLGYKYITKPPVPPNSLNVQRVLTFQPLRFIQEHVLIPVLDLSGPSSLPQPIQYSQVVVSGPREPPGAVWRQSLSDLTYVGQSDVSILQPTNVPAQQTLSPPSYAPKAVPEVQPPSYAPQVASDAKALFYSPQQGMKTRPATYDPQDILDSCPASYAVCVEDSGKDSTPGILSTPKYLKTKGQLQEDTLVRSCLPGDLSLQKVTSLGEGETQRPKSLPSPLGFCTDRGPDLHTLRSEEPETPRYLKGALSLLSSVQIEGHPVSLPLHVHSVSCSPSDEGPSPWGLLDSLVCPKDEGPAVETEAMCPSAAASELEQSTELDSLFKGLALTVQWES
The test can be described thus: cell-based or functional assay.
As for B1, the “Potency (pM) BaF3-mIL22R” value worked out at 790 pM.

Consider B2, for which the “Potency (pM) BaF3-mIL22R” value is 870 pM.

Consider B3, for which the “Potency (pM) BaF3-mIL22R” value came to 105 pM.

As to B4, the “Potency (pM) BaF3-mIL22R” value was found to be 160 pM.

For another test, the target named is T2, human IL22R on BW-hIL22R cells. The test is described as follows: cell-based or functional assay. The source holds these as a separate data set.
Take B6: the “IC50 pM (potency on human IL22R expressing cells)” value (shortened to “IC50 pM”) was ~106 pM.

B1: the “IC50 pM” value came out at 124 pM.

Turning to B2, the “IC50 pM” value is 67 pM.

On to B7, for which the “IC50 pM” value was found to be 132 pM.

For the molecule B3, the “IC50 pM” value came to 87 pM.

Regarding B4, the “IC50 pM” value worked out at 69 pM.

Regarding B5, the “IC50 pM” value was determined as 57 pM.

As for B8, the “IC50 pM” value turned out to be 89 pM.

Another test addresses T4, recombinant human IL22R1 (human IL22R ECD) (human, UniProt Q8N6P7 16-228, biotinylated in the ELISA of Table 4).
T4 construct: extracellular domain; also called hIL22R; human Interleukin 22 receptor
T4 sequence (looked up): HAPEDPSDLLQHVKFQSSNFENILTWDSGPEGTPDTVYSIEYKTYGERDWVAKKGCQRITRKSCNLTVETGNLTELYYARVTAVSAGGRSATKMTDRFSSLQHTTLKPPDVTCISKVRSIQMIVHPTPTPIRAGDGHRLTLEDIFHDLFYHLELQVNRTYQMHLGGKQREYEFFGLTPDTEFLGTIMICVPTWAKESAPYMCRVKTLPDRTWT
The test can be described thus: Biacore, hIL22R.
For B6, the Kd stood at 120 pM.

With B1, the Kd stood at 290 pM.

In the case of B2, the Kd came to 80 pM.

Take B3: the Kd worked out at 10 pM.

With B4, the Kd was determined as 38 pM.

In the case of B5, the Kd was determined as 89 pM.

For the next test, the target named is T1, recombinant mouse IL22R1 (mouse IL22R …). The test is described as follows: screening of clones selected on mouse IL22R; method not detailed.
On to B7, for which the binding result is reported as “binds”.

Regarding B9, the binding result was “binds”.

Consider B8, for which the binding result is recorded as “binds”.
